Earlier results as cited in PMC4327442.

Biological target: IL-18 (Homo sapiens) (UniProt Q14116)
Sequence (Q14116 37-193): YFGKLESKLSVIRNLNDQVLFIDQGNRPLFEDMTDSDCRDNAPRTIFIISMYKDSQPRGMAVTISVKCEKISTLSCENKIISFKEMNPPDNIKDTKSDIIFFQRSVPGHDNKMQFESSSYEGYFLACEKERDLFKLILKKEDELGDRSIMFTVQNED

Chain of IL-18BP (O95998 31-194): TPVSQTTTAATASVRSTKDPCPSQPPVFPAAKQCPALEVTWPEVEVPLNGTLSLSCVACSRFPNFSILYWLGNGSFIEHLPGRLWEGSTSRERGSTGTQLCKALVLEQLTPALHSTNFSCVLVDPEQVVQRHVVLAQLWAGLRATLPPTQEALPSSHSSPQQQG

In the case of IL-18BP (from UniProt O95998), the Kd is given as 0.399 nM.
